The target of one assay is c-Myc (Homo sapiens, UniProt P01106). The assay can be described thus: Yeast two hybrid with c-Myc. The class given is binding. Also on record: with the full length of c-Myc and NMYC, respectively; expressed in transfected cells; host or cells: yeast Y2HGold.
Text: […]

Another assay addresses uPAR (Homo sapiens, UniProt Q03405). Briefly: Yeast two hybrid with uPAR. Type of assay: binding. The arrangement: the CDS of the above genes was subcloned to pGADT7 (YouBio, VT1639); expressed in transfected cells; host or cells: yeast Y2HGold. An excerpt:
[…]
In order to explore how GhJAZ1 enters cancer cells, we cloned the genes of most tumor surface receptors, including uPAR (NCBI database accession number of NM_002659.4), CCK1R (NP_000721.1), CCK2R (NP_001350481.1), HER2 (NP_004439.2), GRPR (NP_005305.1), MUC1 (NP_001358649.1), VEGFR1 (NP_002010.2), Insulin receptor (NM_000208.4), NTR (XM_011528827.2), PSMA (XM_017017432.1), TFR1 (NM_001128148.3), TFR2 (NM_003227.4), PEPT1 (NM_005073.4), APN (NM_001150.3). […] We detected the interaction of GhJAZ1 with uPA (as the ligand of uPAR, NCBI database accession number of NP_002649.2) and uPAR by yeast two hybrid (the steps of the experiment as Example 3). […]

c-Myc, sequence (P01106 whole entry): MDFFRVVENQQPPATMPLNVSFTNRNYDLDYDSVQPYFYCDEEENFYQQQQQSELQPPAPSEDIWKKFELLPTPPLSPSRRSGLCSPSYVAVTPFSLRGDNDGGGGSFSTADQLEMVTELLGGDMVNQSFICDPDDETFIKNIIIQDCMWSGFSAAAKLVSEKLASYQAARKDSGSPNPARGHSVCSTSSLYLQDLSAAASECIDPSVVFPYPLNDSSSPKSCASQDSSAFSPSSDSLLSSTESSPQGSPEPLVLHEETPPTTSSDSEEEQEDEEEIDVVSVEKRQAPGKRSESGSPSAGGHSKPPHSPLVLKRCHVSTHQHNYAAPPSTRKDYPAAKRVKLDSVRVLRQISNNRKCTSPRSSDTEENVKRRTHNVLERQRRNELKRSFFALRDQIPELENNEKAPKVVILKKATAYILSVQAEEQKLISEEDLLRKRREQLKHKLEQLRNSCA
uPAR, sequence (Q03405 23-305): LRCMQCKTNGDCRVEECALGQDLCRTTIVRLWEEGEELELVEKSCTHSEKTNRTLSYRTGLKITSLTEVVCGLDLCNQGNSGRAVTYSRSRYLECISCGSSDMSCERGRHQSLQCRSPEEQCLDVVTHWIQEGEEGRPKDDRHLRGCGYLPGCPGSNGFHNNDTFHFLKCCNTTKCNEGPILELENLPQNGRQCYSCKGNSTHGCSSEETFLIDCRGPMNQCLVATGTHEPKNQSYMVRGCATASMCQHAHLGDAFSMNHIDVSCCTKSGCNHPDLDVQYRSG

B1: GhJAZ1: cotton JAZ1 protein, gene number Gh_A05G0260, sequence SEQ ID No. 4; prokaryotically expressed with His tag, about 30 KD (protein)
chain: MSSCSESTAMKPARSPEKPSFAQTCNLLSQYLKEKGSFGDLSLGMTCNVEANGTPVVPPPTMNLFPLNDKSDDVCGRNGGNPKNLTSMDLFPQQAGLASKDDSPNKLEPQTAPMTIFYGGQVIVFNDFPANKAKEIMLLASNSSSQSNNSFNPIPFTSSIARSPIESSIGVPPTSKPVHPAQRAVPGDLPIARRASLHRFLEKRKDRITAKAPYQINNSAAAPSLSGDNKSWLGLAAQSP
modifications: His tag
notes: prokaryotically expressed with His tag, about 30 KD
In the case of B1, the “interaction with c-Myc” value in the assay with c-Myc is reported as “interacted”. For the same molecule, the “interaction with uPAR” value in the assay with uPAR is “interacted”.

B2: GhJAZ1 after deletion of NT domain: GhJAZ1 mutant with NT domain deleted, protein sequence SEQ ID No. 83 (protein)
chain: MSSCSESTAMKPARSPEANGTPVVPPPTMNLFPLNDKSDDVCGRNGGNPKNLTSMDLFPQQAGLASKDDSPNKLEPQTAPMTIFYGGQVIVFNDFPANKAKEIMLLASNSSSQSNNSFNPIPFTSSIARSPIESSIGVPPTSKPVHPAQRAVPGDLPIARRASLHRFLEKRKDRITAKAPYQINNSAAAPSLSGDNKSWLGLAAQSP
For the molecule B2, in the assay with c-Myc, the “interaction with c-Myc” value is recorded as “significantly weakened”. Also, the “interaction with uPAR” value with uPAR is reported as “significantly weakened”.

Values taken from patent publication US20240279288A1, “APPLICATION OF PLANT JAZ PROTEINS AND DERIVED POLYPEPTIDES IN PREVENTION AND TREATMENT OF HUMAN AND ANIMAL TUMORS” (ANYANG INSTITUTE OF SINO-COTTON INDUSTRY INNOVATION, priority 2021, published 2024).
